Measured values taken from the supplement of paper PMC11908140.

B1: library; numbered along this chain (parent)
chain: MRKPRAAVGSGHRKQAASQEGRQKHAKNNSQAKPSACDGLARQPEEVVLQASVSSYHLFRDVAEVTAFRGSLLSWYDQEKRDLPWRRRAEDEMDLDRRAYAVWVSEVMLQQTQVATVINYYTGWMQKWPTLQDLASASLEEVNQLWAGLGYYSRGRRLQEGARKVVEELGGHMPRTAETLQQLLPGVGRYTAGAIASIAFGQATGVVDGNVARVLCRVRAIGADPSSTLVSQQLWGLAQQLVDPARPGDFNQAAMELGATVCTPQRPLCSQCPVESLCRARQRVEQEQLLASGSLSGSPDVEECAPNTGQCHLCLPPSEPWDQTLGVVNFPRKASRKPPREESSATCVLEQPGALGAQILLVQRPNSGLLAGLWEFPSVTWEPSEQLQRKALLQELQRWAGPLPATHLRHLGEVVHTFSHIKLTYQVYGLALEGQTPVTTVPPGARWLTQEEFHTAAVSTAMKKVFRVYQGQQPGTCMGSKRSQVSSPCSRKKPRMGQQVLDNFFRSHISTDAHSLNSAAQ

Variants of: B1
Assay: 8OG:A repair function score (normalized; synonymous = 0, nonsense = -1) (normalized log-likelihood score); higher = more repair activity (WT-like)
Details: with 8OG:A DNA repair reporter (GFP) in HEK-293 MUTYH KO cells
In short: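 Per-tile Rosace fitness scores were converted to a normalized repair function score anchored on synonymous and nonsense distributions. That scale puts synonymous medians at 0 and nonsense medians at -1. Variants with starting counts under 300 counts per million were discarded. Input came from sorting viable mCherry+ MUTYH knockout HEK-293 cells, carrying lentiviral MUTYH cDNA NNN codon-scan libraries in 10 pg/ml doxycycline and an 8OG:A GFP repair reporter, into GFP+ and GFP− bins at 72 h, three replicates per tile, followed by tile amplicon sequencing.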
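Also: cells sorted at 72 h after reporter transfection.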

| Variant | 8OG:A repair function score |
| --- | --- |
| MRKPRAAVGSGHRKQAASQEGRQKHAKNNSQAKPSACDGLARQPEEVVLQASVSSYHLFRDVAEVTAFRGSLLSWYDQEKRDLPWRRRAEDEMDLDRRAYAVWVSEVMLQQTQVATVINYYTGWMQKWPTLQDLASASLEEVNQLWAGLGYYSRGRRLQEGARKVVEELGGHMPRTAETLQQLLPGVGRYTAGAIASIAFGQATGVVDGNVARVLCRVRAIGADPSSTLVSQQLWGLAQQLVDPARPGDFNQAAMELGATVCTPQRPLCSQCPVESLCRARQRVEQEQLLASGSLSGSPDVEECAPNTGQCHLCLPPSEPWDQTLGVVNFPRKASRKPPREESSVTCVLEQPGALGAQILLVQRPNSGLLAGLWEFPSVTWEPSEQLQRKALLQELQRWAGPLPATHLRHLGEVVHTFSHIKLTYQVYGLALEGQTPVTTVPPGARWLTQEEFHTAAVSTAMKKVFRVYQGQQPGTCMGSKRSQVSSPCSRKKPRMGQQVLDNFFRSHISTDAHSLNSAAQ [A345V] | 0.0157 |
| MRKPRAAVGSGHRKQAASQEGRQKHAKNNSQAKPSACDGLARQPEEVVLQASVSSYHLFRDVAEVTAFRGSLLSWYDQEKRDLPWRRRAEDEMDLDRRAYAVWVSEVMLQQTQVATVINYYTGWMQKWPTLQDLASASLEEVNQLWAGLGYYSRGRRLQEGARKVVEELGGHMPRTAETLQQLLPGVGRYTAGAIASIAFGQATGVVDGNVARVLCRVRAIGADPSSTLVSQQLWGLAQQLVDPARPGDFNQAAMELGATVCTPQRPLCSQCPVESLCRARQRVEQEQLLASGSLSGSPDVEECAPNTGQCHLCLPPSEPWDQTLGVVNFPRKASRKPPREESSWTCVLEQPGALGAQILLVQRPNSGLLAGLWEFPSVTWEPSEQLQRKALLQELQRWAGPLPATHLRHLGEVVHTFSHIKLTYQVYGLALEGQTPVTTVPPGARWLTQEEFHTAAVSTAMKKVFRVYQGQQPGTCMGSKRSQVSSPCSRKKPRMGQQVLDNFFRSHISTDAHSLNSAAQ [A345W] | -0.174 |
| MRKPRAAVGSGHRKQAASQEGRQKHAKNNSQAKPSACDGLARQPEEVVLQASVSSYHLFRDVAEVTAFRGSLLSWYDQEKRDLPWRRRAEDEMDLDRRAYAVWVSEVMLQQTQVATVINYYTGWMQKWPTLQDLASASLEEVNQLWAGLGYYSRGRRLQEGARKVVEELGGHMPRTAETLQQLLPGVGRYTAGAIASIAFGQATGVVDGNVARVLCRVRAIGADPSSTLVSQQLWGLAQQLVDPARPGDFNQAAMELGATVCTPQRPLCSQCPVESLCRARQRVEQEQLLASGSLSGSPDVEECAPNTGQCHLCLPPSEPWDQTLGVVNFPRKASRKPPREESSPTCVLEQPGALGAQILLVQRPNSGLLAGLWEFPSVTWEPSEQLQRKALLQELQRWAGPLPATHLRHLGEVVHTFSHIKLTYQVYGLALEGQTPVTTVPPGARWLTQEEFHTAAVSTAMKKVFRVYQGQQPGTCMGSKRSQVSSPCSRKKPRMGQQVLDNFFRSHISTDAHSLNSAAQ [A345P] | -0.334 |
| MRKPRAAVGSGHRKQAASQEGRQKHAKNNSQAKPSACDGLARQPEEVVLQASVSSYHLFRDVAEVTAFRGSLLSWYDQEKRDLPWRRRAEDEMDLDRRAYAVWVSEVMLQQTQVATVINYYTGWMQKWPTLQDLASASLEEVNQLWAGLGYYSRGRRLQEGARKVVEELGGHMPRTAETLQQLLPGVGRYTAGAIASIAFGQATGVVDGNVARVLCRVRAIGADPSSTLVSQQLWGLAQQLVDPARPGDFNQAAMELGATVCTPQRPLCSQCPVESLCRARQRVEQEQLLASGSLSGSPDVEECAPNTGQCHLCLPPSEPWDQTLGVVNFPRKASRKPPREESSQTCVLEQPGALGAQILLVQRPNSGLLAGLWEFPSVTWEPSEQLQRKALLQELQRWAGPLPATHLRHLGEVVHTFSHIKLTYQVYGLALEGQTPVTTVPPGARWLTQEEFHTAAVSTAMKKVFRVYQGQQPGTCMGSKRSQVSSPCSRKKPRMGQQVLDNFFRSHISTDAHSLNSAAQ [A345Q] | -0.264 |
| MRKPRAAVGSGHRKQAASQEGRQKHAKNNSQAKPSACDGLARQPEEVVLQASVSSYHLFRDVAEVTAFRGSLLSWYDQEKRDLPWRRRAEDEMDLDRRAYAVWVSEVMLQQTQVATVINYYTGWMQKWPTLQDLASASLEEVNQLWAGLGYYSRGRRLQEGARKVVEELGGHMPRTAETLQQLLPGVGRYTAGAIASIAFGQATGVVDGNVARVLCRVRAIGADPSSTLVSQQLWGLAQQLVDPARPGDFNQAAMELGATVCTPQRPLCSQCPVESLCRARQRVEQEQLLASGSLSGSPDVEECAPNTGQCHLCLPPSEPWDQTLGVVNFPRKASRKPPREESSRTCVLEQPGALGAQILLVQRPNSGLLAGLWEFPSVTWEPSEQLQRKALLQELQRWAGPLPATHLRHLGEVVHTFSHIKLTYQVYGLALEGQTPVTTVPPGARWLTQEEFHTAAVSTAMKKVFRVYQGQQPGTCMGSKRSQVSSPCSRKKPRMGQQVLDNFFRSHISTDAHSLNSAAQ [A345R] | -0.408 |
| MRKPRAAVGSGHRKQAASQEGRQKHAKNNSQAKPSACDGLARQPEEVVLQASVSSYHLFRDVAEVTAFRGSLLSWYDQEKRDLPWRRRAEDEMDLDRRAYAVWVSEVMLQQTQVATVINYYTGWMQKWPTLQDLASASLEEVNQLWAGLGYYSRGRRLQEGARKVVEELGGHMPRTAETLQQLLPGVGRYTAGAIASIAFGQATGVVDGNVARVLCRVRAIGADPSSTLVSQQLWGLAQQLVDPARPGDFNQAAMELGATVCTPQRPLCSQCPVESLCRARQRVEQEQLLASGSLSGSPDVEECAPNTGQCHLCLPPSEPWDQTLGVVNFPRKASRKPPREESSNTCVLEQPGALGAQILLVQRPNSGLLAGLWEFPSVTWEPSEQLQRKALLQELQRWAGPLPATHLRHLGEVVHTFSHIKLTYQVYGLALEGQTPVTTVPPGARWLTQEEFHTAAVSTAMKKVFRVYQGQQPGTCMGSKRSQVSSPCSRKKPRMGQQVLDNFFRSHISTDAHSLNSAAQ [A345N] | -0.356 |
| MRKPRAAVGSGHRKQAASQEGRQKHAKNNSQAKPSACDGLARQPEEVVLQASVSSYHLFRDVAEVTAFRGSLLSWYDQEKRDLPWRRRAEDEMDLDRRAYAVWVSEVMLQQTQVATVINYYTGWMQKWPTLQDLASASLEEVNQLWAGLGYYSRGRRLQEGARKVVEELGGHMPRTAETLQQLLPGVGRYTAGAIASIAFGQATGVVDGNVARVLCRVRAIGADPSSTLVSQQLWGLAQQLVDPARPGDFNQAAMELGATVCTPQRPLCSQCPVESLCRARQRVEQEQLLASGSLSGSPDVEECAPNTGQCHLCLPPSEPWDQTLGVVNFPRKASRKPPREESSTTCVLEQPGALGAQILLVQRPNSGLLAGLWEFPSVTWEPSEQLQRKALLQELQRWAGPLPATHLRHLGEVVHTFSHIKLTYQVYGLALEGQTPVTTVPPGARWLTQEEFHTAAVSTAMKKVFRVYQGQQPGTCMGSKRSQVSSPCSRKKPRMGQQVLDNFFRSHISTDAHSLNSAAQ [A345T] | -0.111 |
| MRKPRAAVGSGHRKQAASQEGRQKHAKNNSQAKPSACDGLARQPEEVVLQASVSSYHLFRDVAEVTAFRGSLLSWYDQEKRDLPWRRRAEDEMDLDRRAYAVWVSEVMLQQTQVATVINYYTGWMQKWPTLQDLASASLEEVNQLWAGLGYYSRGRRLQEGARKVVEELGGHMPRTAETLQQLLPGVGRYTAGAIASIAFGQATGVVDGNVARVLCRVRAIGADPSSTLVSQQLWGLAQQLVDPARPGDFNQAAMELGATVCTPQRPLCSQCPVESLCRARQRVEQEQLLASGSLSGSPDVEECAPNTGQCHLCLPPSEPWDQTLGVVNFPRKASRKPPREESSYTCVLEQPGALGAQILLVQRPNSGLLAGLWEFPSVTWEPSEQLQRKALLQELQRWAGPLPATHLRHLGEVVHTFSHIKLTYQVYGLALEGQTPVTTVPPGARWLTQEEFHTAAVSTAMKKVFRVYQGQQPGTCMGSKRSQVSSPCSRKKPRMGQQVLDNFFRSHISTDAHSLNSAAQ [A345Y] | -0.126 |
| MRKPRAAVGSGHRKQAASQEGRQKHAKNNSQAKPSACDGLARQPEEVVLQASVSSYHLFRDVAEVTAFRGSLLSWYDQEKRDLPWRRRAEDEMDLDRRAYAVWVSEVMLQQTQVATVINYYTGWMQKWPTLQDLASASLEEVNQLWAGLGYYSRGRRLQEGARKVVEELGGHMPRTAETLQQLLPGVGRYTAGAIASIAFGQATGVVDGNVARVLCRVRAIGADPSSTLVSQQLWGLAQQLVDPARPGDFNQAAMELGATVCTPQRPLCSQCPVESLCRARQRVEQEQLLASGSLSGSPDVEECAPNTGQCHLCLPPSEPWDQTLGVVNFPRKASRKPPREESSSTCVLEQPGALGAQILLVQRPNSGLLAGLWEFPSVTWEPSEQLQRKALLQELQRWAGPLPATHLRHLGEVVHTFSHIKLTYQVYGLALEGQTPVTTVPPGARWLTQEEFHTAAVSTAMKKVFRVYQGQQPGTCMGSKRSQVSSPCSRKKPRMGQQVLDNFFRSHISTDAHSLNSAAQ [A345S] | -0.148 |
| MRKPRAAVGSGHRKQAASQEGRQKHAKNNSQAKPSACDGLARQPEEVVLQASVSSYHLFRDVAEVTAFRGSLLSWYDQEKRDLPWRRRAEDEMDLDRRAYAVWVSEVMLQQTQVATVINYYTGWMQKWPTLQDLASASLEEVNQLWAGLGYYSRGRRLQEGARKVVEELGGHMPRTAETLQQLLPGVGRYTAGAIASIAFGQATGVVDGNVARVLCRVRAIGADPSSTLVSQQLWGLAQQLVDPARPGDFNQAAMELGATVCTPQRPLCSQCPVESLCRARQRVEQEQLLASGSLSGSPDVEECAPNTGQCHLCLPPSEPWDQTLGVVNFPRKASRKPPREESSADCVLEQPGALGAQILLVQRPNSGLLAGLWEFPSVTWEPSEQLQRKALLQELQRWAGPLPATHLRHLGEVVHTFSHIKLTYQVYGLALEGQTPVTTVPPGARWLTQEEFHTAAVSTAMKKVFRVYQGQQPGTCMGSKRSQVSSPCSRKKPRMGQQVLDNFFRSHISTDAHSLNSAAQ [T346D] | -0.917 |
| MRKPRAAVGSGHRKQAASQEGRQKHAKNNSQAKPSACDGLARQPEEVVLQASVSSYHLFRDVAEVTAFRGSLLSWYDQEKRDLPWRRRAEDEMDLDRRAYAVWVSEVMLQQTQVATVINYYTGWMQKWPTLQDLASASLEEVNQLWAGLGYYSRGRRLQEGARKVVEELGGHMPRTAETLQQLLPGVGRYTAGAIASIAFGQATGVVDGNVARVLCRVRAIGADPSSTLVSQQLWGLAQQLVDPARPGDFNQAAMELGATVCTPQRPLCSQCPVESLCRARQRVEQEQLLASGSLSGSPDVEECAPNTGQCHLCLPPSEPWDQTLGVVNFPRKASRKPPREESSACCVLEQPGALGAQILLVQRPNSGLLAGLWEFPSVTWEPSEQLQRKALLQELQRWAGPLPATHLRHLGEVVHTFSHIKLTYQVYGLALEGQTPVTTVPPGARWLTQEEFHTAAVSTAMKKVFRVYQGQQPGTCMGSKRSQVSSPCSRKKPRMGQQVLDNFFRSHISTDAHSLNSAAQ [T346C] | 0.0316 |
| MRKPRAAVGSGHRKQAASQEGRQKHAKNNSQAKPSACDGLARQPEEVVLQASVSSYHLFRDVAEVTAFRGSLLSWYDQEKRDLPWRRRAEDEMDLDRRAYAVWVSEVMLQQTQVATVINYYTGWMQKWPTLQDLASASLEEVNQLWAGLGYYSRGRRLQEGARKVVEELGGHMPRTAETLQQLLPGVGRYTAGAIASIAFGQATGVVDGNVARVLCRVRAIGADPSSTLVSQQLWGLAQQLVDPARPGDFNQAAMELGATVCTPQRPLCSQCPVESLCRARQRVEQEQLLASGSLSGSPDVEECAPNTGQCHLCLPPSEPWDQTLGVVNFPRKASRKPPREESSAACVLEQPGALGAQILLVQRPNSGLLAGLWEFPSVTWEPSEQLQRKALLQELQRWAGPLPATHLRHLGEVVHTFSHIKLTYQVYGLALEGQTPVTTVPPGARWLTQEEFHTAAVSTAMKKVFRVYQGQQPGTCMGSKRSQVSSPCSRKKPRMGQQVLDNFFRSHISTDAHSLNSAAQ [T346A] | -0.0694 |
